Test results taken from patent publication US20090035281A1, “COMBINATION OF INTERLEUKIN-6 ANTAGONISTS AND ANTIPROLIFERATIVE DRUGS” (Universita Degli Studi "Magna Graecia" Di Catanzaro, priority 2005, published 2009).

Columns and labels:
[1] = test system: human IL-6-dependent multiple myeloma (MM) cell line, INA-6; experiment: Cell proliferation assay ([3H]-thymidine incorporation), INA-6 cells with exogenous IL-6; type: cell-based; conditions: INA-6, exogenous IL-6 present, 3 days' exposure
Description: The formation, characterisation and in-vitro culturing of the IL-6-dependent human MM cell line INA-6 is described in Burger, R., et al.; Hematol. J., 2001; 2:42-53. The cells were maintained in RPMI 1640 culture medium (GIBCO, Grand Island, N.Y.) added with 10% foetal calf serum (FCS, Hyclone, Logan, Utah), L-glutamine 2 mM (GIBCO), 100 μg/ml of streptomycin (GIBCO) and 100 U/ml of penicillin (GIBCO) in the presence of 2.5 ng/ml of IL-6 at 37° C. in a 5% CO2 atmosphere
(§1) Cell proliferation was measured by incorporation of [^3H]-thymidine (NEN Life Science Products, Boston, Mass.). Cells (2×10^4 cells/well) were incubated on 96-well culture plates in the presence or absence of 70-80% confluent BMSC at 37° C. with or without the study substance (in wells in triplicate) for 72 h. [^3H]-thymidine (0.5 μCi) was then added to each well for at least 8 h. Cells were collected on glass filters with an automatic cell collector (Cambridge Technology, Cambridge, Mass.) and counted using a Micro-Beta Trilux counter (Wallac, Gaithersburgh, Md.).
(§2) IL-6 has been identified as one of the main factors in the growth and survival of MM cells. […] INA-6 cells were seeded and cultured on 96-well plates in the presence of exogenous IL-6, and then, after 3 days' exposure of the cells to the drugs, cell proliferation and apoptosis were determined.

[2] = test system: human IL-6-dependent multiple myeloma (MM) cell line, INA-6; experiment: Detection of apoptosis (annexin V-FITC / propidium iodide flow cytometry), INA-6 cells with exogenous IL-6; type: cell-based; conditions: INA-6, exogenous IL-6 present, 3 days' exposure
Description: To detect the induction of cell death by apoptosis, double staining was performed with annexin V labelled with FITC and propidium iodide (PI). After treating 1×10^6 tumour cell for 48 h, the cells were washed with PBS and resuspended in 100 μl of HEPES buffer containing annexin V-FITC and propidium iodide (PI) (Annexin V-FLUOS staining kit; Roche Diagnostic, Indianapolis, Ind.). After 15 minutes' incubation at room temperature, the cells were analysed using a Coulter Epics XL flow cytometer to detect the presence of an apoptotic cell population staining positive for annexin V-FITC and negative for PI.
as §2, with “cells. INA-6 is a human myeloma cell line that requires exogenous IL-6 for growth in vitro (FIG. 1A).” for “cells.”

[3] = test system: INA-6 cells adhering to bone marrow stromal cells (BMSC); experiment: Cell proliferation of INA-6 cells adhering to BMSC, no exogenous IL-6; type: cell-based, human; conditions: 70-80% confluent BMSC, no exogenous IL-6, 3 days after treatment
Description: as §1
Since the paracrine production of IL-6 occurs when the MM cells adhere to BMSC (Uchiyama, H., et al.; Blood, 1993; 82:3712-3720), the supporting effect of BMSC for the in-vitro growth of INA-6 cells after exposure to the drugs was evaluated. The INA-6 cells were seeded on 70-80% confluent BMSC, in the absence of exogenous IL-6, and the cell proliferation was established 3 days after the treatment.

[4] = test system: INA-6 MM cells in human foetal bone implant; experiment: SCID-hu INA-6 mouse model of human MM, tumour growth by serum shuIL-6R; type: in vivo; conditions: for reduction in serum shuIL-6R (marker of tumour growth) vs control group: s.c., SANT-7 3.3 mg/kg or Dex 1 mg/kg alone, 5 consecutive days; for tolerability in SCID-hu mice: treatment with single agent
Description: Male SCID C-17 mice aged from six to eight weeks (Taconic Germany, N.Y.) were housed and monitored in our Animal Research Facility. All the experimental procedures and protocols were approved by the Institutional Committee on the Treatment and Use of Animals. Human foetal femur transplants were implanted in SCID (SCID-hu) mice, as described in Urashima, M., et al.; Blood, 1997; 90(2): 754-65; Tassone, P., et al.; Blood, 2004. Four weeks after implantation, 2.5×10^6 INA-6 MM cells in 50 μl of PBS were injected into the foetal bone implant in the SCID-hu hosts. Serum levels of the interleukin-6 soluble receptor (shuIL-6R) (R & D Systems Inc., Minneapolis, Minn.) were monitored in the mice.
(§3) In these mice serum shuIL-6R was measured as a marker of tumour growth and disease severity, since it is released by the INA-6 cells. First, the pharmacokinetics of SANT-7 was determined.

[5] = In-vivo kinetics of SANT-7 after s.c. injection; parameters: species or system SCID-hu mouse
Description: A) Sant-7 (3.3 mg/kg) was injected s.c. into a SCID-hu mouse and its kinetics was evaluated with serial determinations of IL-6 in serum. B) Tumour growth in SCID-hu mice implanted with INA-6 cells was monitored with serial measurements of shuIL-6R. […] P values were obtained by comparison between the control groups and the groups treated with the combination. The data were expressed as mean±SE.
as §3

purified CD34+ HPC = experiment: Clonogenic progenitor assays in methylcellulose; type: cell-based, human; conditions: for CFC-GM: SANT-7 200 ng/ml, Dex 10^-5 M; for Total: total colonies
Source text: (§4) Peripheral blood mobilised CD34^+ HPC were isolated from leukapheresis products of patients with haematopoietic and non-haematopoietic tumours, treated with high-dose chemotherapy and G-CSF or GM-CSF. Peripheral blood mononuclear cells were obtained by centrifugation across a Ficoll density gradient (Seromed, Berlin, Germany), washed and submitted to positive selection using the CD34 Progenitor Cell Isolation Kit (Miltenyi Biotech, Bergish Gladbach, Germany). In brief, CD34^+ HPC were magnetically labelled indirectly using a primary monoclonal antibody conjugated with a hapten and an anti-hapten antibody coupled with MACS MicroBeads (Miltenyi). The labelled cells were subsequently enriched with the MiniMACS magnetic field.
The clonogenic progenitor assays were carried out in methylcellulose as described previously with minor modifications. In brief, 1×10^3 freshly isolated CD34^+ HCP were seeded in IMDM (GIBCO) containing 1% methylcellulose, 30% foetal calf serum (Hyclone), 1% bovin serum albumin (Sigma), L-glutamine 2 mM (GIBCO) and 2β-mercaptoethanol 10^−4 M (Stemcell Technologies Inc., Vancouver, Canada). To induce granulomonocytic or erythroid differentiation, the cells were stimulated with IL-3 (50 ng/ml), GM-CSF (100 ng/ml), G-CSF (100 ng/ml) or IL-3 (50 ng/ml), GM-CSF (100 ng/ml), SCF (50 ng/ml) ed Epo (3 U/ml), respectively. […] 1 ml aliquots were plated in triplicate on 35 mm culture plates (Falcon) at 37° C. in a 5% CO2 humidified atmosphere. After 14 days' culture, the granulomonocytic colonies (CFC-GM) and the erythroid colonies (BFU-E) were counted by examining the cultures under an inverted microscope.

[6] = test system: human CD34+ Haematopoietic Progenitor Cells (HPC); experiment: Liquid culture of CD34+ HPC, flow cytometric cell cycle (DNA content, PI) analysis; type: cell-based; conditions: 6 days liquid culture with haemopoietins + IL-6
Source text: as §4

[7] = single s.c. injection 3.3 mg/kg

Molecule | growth inhibition of MM cells [1] | death by apoptosis in MM cells [2] | growth inhibition of INA-6 cells adhering to BMSC [3] | reduction in serum shuIL-6R (marker of tumour growth) vs control group [4] | tolerability in SCID-hu mice [4] | time drug remains in circulation after the injection [5, 7] | time to SANT-7 serum peak [5, 7] | clearance ([5]; subcutaneous administration) | effect on generation of CFC-GM and BFU-E in response to haemopoietins (purified CD34+ HPC; CD34+ HPC, clonogenic assays) | CFC-GM (purified CD34+ HPC; colonies, IL3 + GM + G + IL6 (granulomonocytic differentiation), 1 × 10^3 cells/plate, day 14, mean ± SD) | CFC-GM (purified CD34+ HPC; colonies, IL3 + GM + SCF + Epo + IL6 (erythroid differentiation), 1 × 10^3 cells/plate, day 14, mean ± SD) | BFU-E (purified CD34+ HPC; colonies, IL3 + GM + SCF + Epo + IL6, 1 × 10^3 cells/plate, day 14, mean ± SD) | Total (purified CD34+ HPC; IL3 + GM + G + IL6, 1 × 10^3 cells/plate, day 14, mean ± SD) | Total (purified CD34+ HPC; IL3 + GM + SCF + Epo + IL6, 1 × 10^3 cells/plate, day 14, mean ± SD) | apoptosis rate of CD34+ cells [6] | effect on cell proliferation (cell cycle) of CD34+ cells [6]
C[C@@H]1C[C@H]2[C@@H]3CCC4=CC(=O)C=C[C@]4(C)[C@@]3(F)[C@@H](O)C[C@]2(C)[C@@]1(O)C(=O)CO [Dex, dexamethasone, reference compound] | neither modified cell proliferation | nor induced apoptosis | activity was inhibited | did not induce any significant reduction | well tolerated |  |  |  |  |  |  |  |  |  |  | 
SANT-7: superantagonist of the IL-6 receptor, molecular variant of IL-6 totally incapable of binding gp130, sequence SEQ ID No. 4 (protein, listed as Homo sapiens) PVPPGEDSKDVAAPHRQPLTSSERIDKQIRDILDFISALRKETCNKSNMCESSKEADAFWNLNLPKMAEKDGCFYKGFNEETCLVKIITGLLEFEVYLEYLQNRFESSEEQARAVQMRTKDLIQFLQKKAKNLDAITTPDPTTNASLLTKLQAQNQWLQDMTTHLILRSFKEFLIRSLRALRAM | high rates of growth inhibition | high rates | reduced the efficacy of the growth inhibition | did not induce any significant reduction | well tolerated | 4 h | 30 min | very rapid clearance | does not interfere appreciably | 73 ± 2 | 21 ± 1 | 50 ± 2 | 73 ± 2 | 71 ± 1 | No significant apoptosis rate | does not significantly affect cell proliferation
